Data published in the RNAGym collection of RNA variant scans (doi:10.1093/molbev/msab373).

B1: Azoarcus group I ribozyme (parent)
chain: GUGCCUUGCGCCGGGAAACCACGCAAGGGAUGGUGUCAAAUUCGGCGAAACCUAAGCGCCCGCCCGGGCGUAUGGCAACGCCGAGCCAAGCUUCGGCGCCUGCGCCGAUGAAGGUGUAGAGACUAGACGGCACCCACCUAAGGCAAACGCUAUGGUGAAGGCAUAGUCCAGGGAGUGGCGAAAGUCACACAAACCGG

Variants of: B1
Assay: reverse-splicing fitness (ratio to wild type); higher = more active; in vitro selection; Mg2+ level not given
In short: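 An in vitro group I ribozyme library with randomized positions was T7-transcribed and gel-purified. In triplicate, 10 pmol RNA in EPPS pH 7.5 was reacted with 50 pmoles of a 30-nt RNA substrate for 1 h at 37 °C across several added MgCl2 levels (1–48 mM), then stopped with EDTA. Products were reverse transcribed from a substrate-complementary primer, PCR-amplified and sequenced (HiSeq 4000). Fitness is a variant's read proportion after selection over that before, normalised to wild type.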

Row | Variant | reverse-splicing fitness
1 | GUGCCUUGCGCCGGGAAACCACGCAAGGGAUGGUGUCAAAUUCGGCGAAACCUAAGCGCCCGCCCGGGCGUAUGGCAACGCUGAGCCAAGCUUCGGCGCCUGCGCCGAUGAAGGUGUAGUGACUAGACGGCACCCACCUAAGGCUAACGAUAUGGUGAAGGCAUAGUCCAGGGAGGGGCGAAAGUCACACAAACCGG [C82U A120U A145U C150A U176G] | 0.00379
2 | GUGCCUUGCGCCGGGAAACCACGCAAGGGAUGGUGUCAAAUUCGGCGAAACCUAAGCGCCCGCCCGGGCGUAUGGCAACGCUGAGCCAAGCUUCGGCGCCUGCGCCGAUGAAGGUGUAGUGACUAGACGGCACCCACCUAAGGCUAACGGUAUGGUGAAGGCAUAGUCCAGGGAGUGGCGAAAGUCACACAAACCGG [C82U A120U A145U C150G] | 0.0184
3 | GUGCCUUGCGCCGGGAAACCACGCAAGGGAUGGUGUCAAAUUCGGCGAAACCUAAGCGCCCGCCCGGGCGUAUGGCAACGCUGAGCCAAGCUUCGGCGCCUGCGCCGAUGAAGGUGUAGUGACUAGACGGCACCCACCUAAGGCUAACGGUAUGGUGAAGGCAUAGUCUAGGGAGGGGCGAAAGUCACACAAACCGG [C82U A120U A145U C150G C169U U176G] | 0.00186
4 | GUGCCUUGCGCCGGGAAACCACGCAAGGGAUGGUGUCAAAUUCGGCGAAACCUAAGCGCCCGCCCGGGCGUAUGGCAACGCUGAGCCAAGCUUCGGCGCCUGCGCCGAUGAAGGUGUAGUGACUAGACGGCACCCACCUAAGGCUAACGGUAUGGUGAAGGCAUAGUCUAGGGAGAGGCGAAAGUCACACAAACCGG [C82U A120U A145U C150G C169U U176A] | 0.00257
5 | GUGCCUUGCGCCGGGAAACCACGCAAGGGAUGGUGUCAAAUUCGGCGAAACCUAAGCGCCCGCCCGGGCGUAUGGCAACGCUGAGCCAAGCUUCGGCGCCUGCGCCGAUGAAGGUGUAGUGACUAGACGGCACCCACCUAAGGCUAACGGUAUGGUGAAGGCAUAGUCUAGGGAGCGGCGAAAGUCACACAAACCGG [C82U A120U A145U C150G C169U U176C] | 0.00297
6 | GUGCCUUGCGCCGGGAAACCACGCAAGGGAUGGUGUCAAAUUCGGCGAAACCUAAGCGCCCGCCCGGGCGUAUGGCAACGCUGAGCCAAGCUUCGGCGCCUGCGCCGAUGAAGGUGUAGUGACUAGACGGCACCCACCUAAGGCUAACGGUAUGGUGAAGGCAUAGUCAAGGGAGAGGCGAAAGUCACACAAACCGG [C82U A120U A145U C150G C169A U176A] | 0.00252
7 | GUGCCUUGCGCCGGGAAACCACGCAAGGGAUGGUGUCAAAUUCGGCGAAACCUAAGCGCCCGCCCGGGCGUAUGGCAACGCUGAGCCAAGCUUCGGCGCCUGCGCCGAUGAAGGUGUAGUGACUAGACGGCACCCACCUAAGGCUAACGGUAUGGUGAAGGCAUAGUCAAGGGAGCGGCGAAAGUCACACAAACCGG [C82U A120U A145U C150G C169A U176C] | 0.00203
8 | GUGCCUUGCGCCGGGAAACCACGCAAGGGAUGGUGUCAAAUUCGGCGAAACCUAAGCGCCCGCCCGGGCGUAUGGCAACGCUGAGCCAAGCUUCGGCGCCUGCGCCGAUGAAGGUGUAGUGACUAGACGGCACCCACCUAAGGCUAACGGUAUGGUGAAGGCAUAGUCAAGGGAGGGGCGAAAGUCACACAAACCGG [C82U A120U A145U C150G C169A U176G] | 0.0021
9 | GUGCCUUGCGCCGGGAAACCACGCAAGGGAUGGUGUCAAAUUCGGCGAAACCUAAGCGCCCGCCCGGGCGUAUGGCAACGCUGAGCCAAGCUUCGGCGCCUGCGCCGAUGAAGGUGUAGUGACUAGACGGCACCCACCUAAGGCUAACGGUAUGGUGAAGGCAUAGUCGAGGGAGUGGCGAAAGUCACACAAACCGG [C82U A120U A145U C150G C169G] | 0.00248
10 | GUGCCUUGCGCCGGGAAACCACGCAAGGGAUGGUGUCAAAUUCGGCGAAACCUAAGCGCCCGCCCGGGCGUAUGGCAACGCUGAGCCAAGCUUCGGCGCCUGCGCCGAUGAAGGUGUAGUGACUAGACGGCACCCACCUAAGGCUAACGGUAUGGUGAAGGCAUAGUCUAGGGAGUGGCGAAAGUCACACAAACCGG [C82U A120U A145U C150G C169U] | 0.00244
11 | GUGCCUUGCGCCGGGAAACCACGCAAGGGAUGGUGUCAAAUUCGGCGAAACCUAAGCGCCCGCCCGGGCGUAUGGCAACGCUGAGCCAAGCUUCGGCGCCUGCGCCGAUGAAGGUGUAGUGACUAGACGGCACCCACCUAAGGCUAACGGUAUGGUGAAGGCAUAGUCAAGGGAGUGGCGAAAGUCACACAAACCGG [C82U A120U A145U C150G C169A] | 0.00259
12 | GUGCCUUGCGCCGGGAAACCACGCAAGGGAUGGUGUCAAAUUCGGCGAAACCUAAGCGCCCGCCCGGGCGUAUGGCAACGCUGAGCCAAGCUUCGGCGCCUGCGCCGAUGAAGGUGUAGUGACUAGACGGCACCCACCUAAGGCUAACGGUAUGGUGAAGGCAUAGUCCAGGGAGAGGCGAAAGUCACACAAACCGG [C82U A120U A145U C150G U176A] | 0.00548
13 | GUGCCUUGCGCCGGGAAACCACGCAAGGGAUGGUGUCAAAUUCGGCGAAACCUAAGCGCCCGCCCGGGCGUAUGGCAACGCUGAGCCAAGCUUCGGCGCCUGCGCCGAUGAAGGUGUAGUGACUAGACGGCACCCACCUAAGGCUAACGGUAUGGUGAAGGCAUAGUCGAGGGAGAGGCGAAAGUCACACAAACCGG [C82U A120U A145U C150G C169G U176A] | 0.00198
14 | GUGCCUUGCGCCGGGAAACCACGCAAGGGAUGGUGUCAAAUUCGGCGAAACCUAAGCGCCCGCCCGGGCGUAUGGCAACGCUGAGCCAAGCUUCGGCGCCUGCGCCGAUGAAGGUGUAGUGACUAGACGGCACCCACCUAAGGCUAACGGUAUGGUGAAGGCAUAGUCGAGGGAGCGGCGAAAGUCACACAAACCGG [C82U A120U A145U C150G C169G U176C] | 0.00209
15 | GUGCCUUGCGCCGGGAAACCACGCAAGGGAUGGUGUCAAAUUCGGCGAAACCUAAGCGCCCGCCCGGGCGUAUGGCAACGCUGAGCCAAGCUUCGGCGCCUGCGCCGAUGAAGGUGUAGUGACUAGACGGCACCCACCUAAGGCUAACGGUAUGGUGAAGGCAUAGUCGAGGGAGGGGCGAAAGUCACACAAACCGG [C82U A120U A145U C150G C169G U176G] | 0.00173
